We go through one substance from US8597660B2, “Therapeutic approach to neurodegenerative disorders using a TFP5-peptide” (The United States of America, as represented by the …, priority 2010, dated 2013).

In assay [1] the target is T1, Cdk5/P25 (Homo sapiens, UniProt Q00535). Kind of assay: Cdk5/P25 kinase assay after pre-incubation with β-tubulin. In kind it is biochemical. As for the experimental part: Tubulin polymerization was performed as detailed in a previous report (Hou et al., J. Biol. Chem., 282(26), 18666-18670, 2007). Briefly, active kinase Cdk5/P35 (2 ng/μL) or active Cdk5/P25 (1 ng/μL) were incubated with β-tubulin (enzyme: tubulin at 1:100) in the PEM buffer (80 mM PIPES, 2 mM MgCl2, 1 mM EGTA PH 7.0) supplemented with 1 mM GTP at 35° C. for 45 minutes. Following the incubation, Cdk5 kinase assays were performed with or without the addition of 0.45 μM or 0.90 μM P5.
To further explore this possibility, β-tubulin (which is enriched in neurons) was used to perform a study in vitro to mimic P35 interactions in cells. Cdk5/P35 and Cdk5/P25 active kinases were pre-incubated with β-tubulin (Cdk5 kinase:tubulin=1:100) respectively at 35° C. for 45 minutes to 1 hour under conditions that would promote tubulin polymerization, followed by a Cdk5 kinase assay with/without the addition of P5. […] Cdk5/P25 activity, however, was inhibited 60% after pre-incubation at the lower P5 concentration (0.45 μM) (FIG. 9B, lane 4 compared with lane 1) (p<0.01). […] On the other hand, P25, lacking the P10 domain, fails to bind these proteins, and P5 readily binds with Cdk5 in the Cdk5/P25 complex to inhibit activity.

Assay [2] deals with T1, Cdk5/P25. Put plainly: In vitro kinase (pad) assay of active Cdk5/P25 with histone H1 as substrate. In kind it is biochemical. As for the experimental part:
Kinase assays were performed as previously described (Veeranna, et al., J Neurosci 18(11), 4008-4021, 1998). Briefly, 7 days in culture (7 DIC) primary rat cortical neurons were infected with P25, P35, Cdk5 wild-type, dominant negative-Cdk5 and P5 using the lentiviral gene delivery as described earlier. Cdk5 was immunoprecipitated using the polyclonal C8 antibody overnight at 4° C. and immunoglobulin isolated using Protein A sepharose beads for 2 hours at 4° C. Immunoprecipitates were washed three times with lysis buffer and then once with 1× kinase buffer containing 20 mM Tris-Cl pH 7.4, 1 mM EDTA, 1 mM EGTA, 10 mM MgCl2, 10 mM sodium fluoride and 1 mM sodium orthovanadate. Endogenous Cdks were immunoprecipitated from HEK 293 cells using their respective antibodies and treated as above. Kinase assays were performed in the same buffer containing 1 mM DTT, 0.1 mM ATP and 0.185 MBq [γ-32P] ATP with 20 μg of histone H1 as the substrate. Phosphorylation was performed in a final volume of […] incubated at 30° C. for 60 minutes, stopped by the addition of 10% SDS sample buffer and heating at 95° C. for 5 minutes. Samples were separated by SDS-PAGE, gels were stained with Coomassie, destained, dried and exposed to autoradiography. In pad assays, 25 μl aliquots of the incubation mixture were placed on a Whatman p80 paper square, washed and dried and placed in a scintillation vial for counting.
These are GST-P1 (E211-A277 of SEQ ID NO: 16), 67 amino acid residues; GST-P2 (M237-A277), 41 residues; GST-P3 (E221-L267 of SEQ ID NO: 16), 47 residues; GST-P4 (E221-L249 of SEQ ID NO: 16), 29 residues and GST-P5 (K254-A277 of SEQ ID NO: 16) 24 residues. Each was incubated with active Cdk5/P25 in a kinase assay in vitro. […] FIG. 10 provides a comparison of P5 and CIP, relative to P35.
In a dose-dependent kinase assay the effective inhibitory concentration of P5 for both the Cdk5/P25 and Cdk5/P35 complexes was evaluated. His-P5 peptide was added at different concentrations to the in vitro assay containing 100 μM [γ32-P] ATP and histone H1. Inhibition increased progressively with increasing P5 concentration in both complexes (Compare FIGS. 2A, 2B with 2C, 2D).
P5, a 24 amino acid peptide derived from Cdk5 regulator p35, was modified by conjugating it with TAT PTD at the C-terminal end and with FITC (using a GGG linker) at the N-terminus to produce a fluorescent (FITC-labeled) TFP5 (SEQ ID NO: 2) peptide. In a dose-dependent kinase assay the effective inhibitory concentration of TFP5 for both the Cdk5/P25 and Cdk5/P35 complexes was evaluated. His-P5 peptide was added at different concentrations to the in vitro assay containing 100 μM [γ32-P] ATP and histone H1. […] Data represent means of four independent experiments with error bars representing SEM (*p≦0.05, **p≦0.001).

In assay [3] the target is T1, Cdk5/P25. Put plainly: Kinase assay of Cdk5 immunoprecipitates from cortical neurons infected with Cdk5/P25 with or without P5. In kind it is cell-based. Also noted: expressed in transfected cells; host or cells: E-18 rat cortical neurons, adenoviral infection (pAdTrack-CMV / AdEasy). Conditions: E-18 rat cortical neurons co-infected with P5. As for the experimental part:
Primary cultures of rat cortical neurons were prepared from E-18 rat fetuses as described previously (Zheng et al., J Biol Chem 278(26), 24026-24032, 2003). After 7 days, cells were infected independently or co-infected with empty vector (EV), the constructs of P5, P25, P35, wild-type Cdk5 and dominant negative Cdk5 (changing Lys33 to Thr33) using the Adenoviral vector (pAdTrack-CMV) packaging system as described above. […] The cells were fixed for immunocytochemistry analyses (ICC) or lysed with lysis buffer for immunoprecipitation and Western blot analyses. Cortical neuron cultures were prepared and plated on the cover slips as described. Human embryo kidney cells (HEK293) were grown as described previously (Zheng et al., Eur J Biochem 269(18), 4427-4434, 2002). In these studies HEK293 cells on day 1, or neurons on day 5, were transfected with or without Myc-P5-GFP using Lipofectamine 2000 following the manufacturer's instructions.
Kinase assays were performed as previously described (Veeranna, et al., J Neurosci 18(11), 4008-4021, 1998). Briefly, 7 days in culture (7 DIC) primary rat cortical neurons were infected with P25, P35, Cdk5 wild-type, dominant negative-Cdk5 and P5 using the lentiviral gene delivery as described earlier. […]

Entries after “also recorded” stand apart in the source; their conditions may differ.

T1 sequence (Q00535 whole entry, species assumed): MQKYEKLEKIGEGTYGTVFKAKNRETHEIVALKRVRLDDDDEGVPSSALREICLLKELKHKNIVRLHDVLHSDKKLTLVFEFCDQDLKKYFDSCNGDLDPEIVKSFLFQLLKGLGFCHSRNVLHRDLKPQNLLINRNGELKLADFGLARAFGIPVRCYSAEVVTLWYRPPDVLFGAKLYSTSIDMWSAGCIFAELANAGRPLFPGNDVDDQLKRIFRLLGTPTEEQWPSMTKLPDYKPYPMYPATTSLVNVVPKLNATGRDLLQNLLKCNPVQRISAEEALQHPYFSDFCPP

In the case of “P5: 24 residue peptide derived from Cdk5 activator P35 (K254-A277 of SEQ ID NO: 16); Cdk5 inhibitory peptide (KEAFWDRCLSVINLMSSKMLQINA; listed as Homo sapiens)”, the “Inhibition of Cdk5/P25 activity with unpolymerized tubulin (no pre-incubation)” value with Cdk5/P25 [1] (0.45 μM P5) is “P5 inhibits both kinases equally; also recorded: inhibited both Cdk5/P35 and Cdk5/P25 activities equally; also recorded: inhibited both complexes equally”. In the assay with Cdk5/P25 [1] (0.9 μM P5), the “Inhibition of Cdk5/P25 activity pre-incubated with polymerized tubulin” value is “both kinase complexes are inhibited equally; also recorded: both Cdk5 complexes were inhibited”. Besides, in the assay with Cdk5/P25 [2] (0.7 μM P5), the “Inhibition of Cdk5/P25 activity” value was “approximately 70%”. The “Specificity of inhibition, Cdk5/P25 versus Cdk5/P35” value with Cdk5/P25 [2] (in vitro (test tube) assay, 0.05 to 1.2 μM) is given as “equally inhibits each Cdk5 complex in a dose-dependent manner; also recorded: not specific for Cdk5/P25; also recorded: non-specific in vitro”. In addition, the “Inhibition of Cdk5/P25 activity, comparison among peptides and CIP” value with Cdk5/P25 [2] (in vitro kinase assay, histone H1, FIG. 1) is listed as “most effective inhibitor of Cdk5/P25; also recorded: more effective inhibitors of Cdk5/P25 activity than CIP”. Moreover, the “Decrease of Cdk5 activity in neurons infected with Cdk5/P25” value with Cdk5/P25 [3] was “more than 90%”.
